Results reported in publication PMC8402574.

Target: NG19 (Non-Glycosylated protein of 19 kDa, S371 to F541 of the SARS-CoV-2 Spike protein RBD) (SARS-CoV-2) (UniProt P0DTC2)
Assay: Tricine-SDS-PAGE under non-reducing conditions

## NG19 (Non-Glycosylated protein of 19 kDa, S371 to F541 of the SARS-CoV-2 Spike protein RBD) (from UniProt P0DTC2 371-541) (domain or fragment)
  stoichiometry N: 2
